{"source": "paper PMC5123051", "about": "“Neutralization mechanism of a highly potent antibody against Zika virus” (Nature Communications, 2016)", "binders": {"B1": {"name": "Fab C10 (Fab, V domains shown)", "VH": "EVQLVESGAEVKKPGASVKVSCKASGYTFTSYAMHWVRQAPGQRLEWMGWINAGNGNTKYSQKFQDRVTITRDTSASTAYMELSSLRSEDTAIYYCARDKVDDYGDYWFPTLWYFDYWGQGTLVTVS", "VL": "ALTQPASVSGSPGQSITISCTGTSSDVGGFNYVSWFQQHPGKAPKLMLYDVTSRPSGVSSRFSGSKSGNTASLTISGLQAEDEADYYCSSHTSRGTWVFGGGTKLTVL", "notes": "heavy chain variable region of C10; human IgG1 heavy chain constant region, the part that stays in the Fab after papain digestion; light chain variable region of C10; human lambda 2 light chain constant region; Fab cut from the IgG with papain; also called Fab fragment of HMAb C10; Fab regions of C10 IgG; source: C10 IgG from HEK293T cells, transiently co-transfected, protein A purified; Fab by …"}}, "target": "T1, Zika virus envelope (E) protein on purified ZIKV particles, strain H/PF/2013 (Zika virus H/PF/2013 (French Polynesia …, strain))", "T1 construct": "envelope protein E of Zika virus strain H/PF/2013, cut product of the viral polyprotein, on the virus surface; Stood in the assay as whole virus particles: 180 copies of E in icosahedral symmetry, as dimers, three dimers forming a raft, 30 rafts; M protein and the lipid membrane are also present; E carries a glycan on the '150 glycan loop'; also called molecules A, B and C; source: Aedes …", "assay": "cryo-EM structure; Fab C10 mixed with purified ZIKV at 1.5 Fab to every E protein, 30 min at 37 °C then ~1 h on ice; pH8.0 (NTE buffer); 4.0 Å", "conditions": "both partners purified"}
{"binder": "B1", "values": [{"measurement": "stoichiometry N", "value": "180 copies of Fab per virus particle"}]}
